# T1: Kap114pΔ(848-875) (S. cerevisiae, UniProt P53067 1-1004, Δ848-875)
# T1 construct: this construct is not in the list of mutants of the cloning methods; also called Δ(a.a.848-875); GST-Kap114p (Δ848-875); source: E. coli Rosetta, purified (GST resin, MonoQ, Superdex 200)
# T1 sequence (looked up): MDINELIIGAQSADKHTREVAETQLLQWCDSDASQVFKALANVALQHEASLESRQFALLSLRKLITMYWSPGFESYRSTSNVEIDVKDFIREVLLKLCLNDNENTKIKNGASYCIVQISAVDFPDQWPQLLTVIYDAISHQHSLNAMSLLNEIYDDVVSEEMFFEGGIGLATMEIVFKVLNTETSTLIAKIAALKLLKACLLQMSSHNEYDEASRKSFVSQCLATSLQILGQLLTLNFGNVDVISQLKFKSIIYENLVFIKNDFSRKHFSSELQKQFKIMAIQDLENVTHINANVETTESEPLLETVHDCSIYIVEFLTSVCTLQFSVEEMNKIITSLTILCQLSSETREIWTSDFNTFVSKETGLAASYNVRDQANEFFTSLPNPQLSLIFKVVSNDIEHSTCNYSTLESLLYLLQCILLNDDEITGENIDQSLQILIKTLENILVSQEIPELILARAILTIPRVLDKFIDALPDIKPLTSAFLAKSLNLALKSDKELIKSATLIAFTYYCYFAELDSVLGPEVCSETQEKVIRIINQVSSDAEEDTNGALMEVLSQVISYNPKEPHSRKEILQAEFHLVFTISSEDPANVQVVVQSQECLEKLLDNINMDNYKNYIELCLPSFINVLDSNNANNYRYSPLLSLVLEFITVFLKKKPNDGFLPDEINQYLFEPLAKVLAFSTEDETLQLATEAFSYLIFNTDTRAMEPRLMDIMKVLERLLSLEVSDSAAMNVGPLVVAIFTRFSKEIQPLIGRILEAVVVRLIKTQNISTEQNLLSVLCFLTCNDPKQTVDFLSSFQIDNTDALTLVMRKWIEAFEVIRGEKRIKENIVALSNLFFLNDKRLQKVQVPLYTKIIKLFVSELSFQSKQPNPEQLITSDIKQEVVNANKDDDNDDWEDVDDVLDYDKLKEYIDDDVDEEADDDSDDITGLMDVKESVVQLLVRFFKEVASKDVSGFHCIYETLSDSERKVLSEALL
# T2: Kap114pΔY939 (S. cerevisiae, UniProt P53067 1-1004, ΔY939)
# T2 construct: Kap114p, S. cerevisiae, full length with residue Y939 deleted; also called Kap114p(DY939); source: E. coli (Rosetta strain), purified (GST resin, MonoQ, Superdex 200)
# T2 sequence (looked up): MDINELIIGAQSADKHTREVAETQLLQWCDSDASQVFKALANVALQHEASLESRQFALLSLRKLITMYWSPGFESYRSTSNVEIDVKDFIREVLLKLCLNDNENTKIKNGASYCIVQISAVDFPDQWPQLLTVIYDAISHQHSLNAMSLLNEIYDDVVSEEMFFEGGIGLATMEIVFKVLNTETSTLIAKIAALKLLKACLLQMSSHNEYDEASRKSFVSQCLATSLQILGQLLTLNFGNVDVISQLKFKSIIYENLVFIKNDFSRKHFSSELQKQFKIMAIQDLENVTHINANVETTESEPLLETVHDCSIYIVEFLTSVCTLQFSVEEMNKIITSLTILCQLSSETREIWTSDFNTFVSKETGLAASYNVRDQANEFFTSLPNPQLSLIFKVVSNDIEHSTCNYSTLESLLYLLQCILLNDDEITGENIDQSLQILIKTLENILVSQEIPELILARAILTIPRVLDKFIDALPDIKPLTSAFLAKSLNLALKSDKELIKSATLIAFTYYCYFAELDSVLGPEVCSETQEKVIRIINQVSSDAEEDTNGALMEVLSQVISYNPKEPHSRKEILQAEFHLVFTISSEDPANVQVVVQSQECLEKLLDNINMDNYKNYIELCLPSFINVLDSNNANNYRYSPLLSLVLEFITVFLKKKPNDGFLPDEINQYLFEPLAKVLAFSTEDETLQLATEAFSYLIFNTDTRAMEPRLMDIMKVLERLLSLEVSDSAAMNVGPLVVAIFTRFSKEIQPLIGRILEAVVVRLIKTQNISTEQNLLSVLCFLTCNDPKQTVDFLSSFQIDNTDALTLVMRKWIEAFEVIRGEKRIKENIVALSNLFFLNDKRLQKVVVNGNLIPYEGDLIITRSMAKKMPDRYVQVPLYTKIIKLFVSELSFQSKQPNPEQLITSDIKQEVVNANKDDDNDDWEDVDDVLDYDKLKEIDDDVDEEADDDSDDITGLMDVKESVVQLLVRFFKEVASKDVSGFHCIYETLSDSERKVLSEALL
# Key:
# [1] = biological target: T1, Kap114pΔ(848-875); assay: ITC; MicroCal iTC200, 25 °C, 20 mM HEPES pH 7.4, 150 mM NaCl; high concentration: 50 µM wild type or mutant Kap114p in the sample cell, 500 µM wild type or mutant yTBPC in the syringe; triplicate; conditions: both partners purified
# [2] = biological target: T2, Kap114pΔY939; assay: ITC; Kap114p (wild type or mutant) 50 uM in the sample cell, partner 500 uM in the syringe; 25 °C; 20 mM HEPES pH 7.4, 150 mM NaCl; triplicate; conditions: both partners purified
Binder,Kd [1],Kd [2]
"yTBP^C wild type (core domain of yeast TATA-box binding protein, a.a. 61-240) (domain or fragment, S. cerevisiae, UniProt P13393 61-240, looked up, modified pET28a, 6xHis tag followed by a PreScission site; also called yTBPC WT; His-yTBP (61-240); source: E. coli Rosetta, purified (Ni-NTA, HiTrap SP, Superdex 75); not shown: His6, N-terminal, cleaved) SGIVPTLQNIVATVTLGCRLDLKTVALHARNAEYNPKRFAAVIMRIREPKTTALIFASGKMVVTGAKSEDDSKLASRKYARIIQKIGFAAKFTDFKIQNIVGSCDVKFPIRLEGLAFSHGTFSSYEPELFPGLIYRMVKPKIVLLIFVSGKIVLTGAKQREEIYQAFEAIYPVLSEFRKM",1.7 nM,
"core domain of yTBP (a.a. 61-240) (domain or fragment, S. cerevisiae, UniProt P13393 61-240, looked up, 61-240; also called yTBP^C; yTBPc; source: E. coli (Rosetta strain), purified (Ni-NTA, HiTrap SP, Superdex 75); not shown: 6xHis, N-terminal, cleaved) SGIVPTLQNIVATVTLGCRLDLKTVALHARNAEYNPKRFAAVIMRIREPKTTALIFASGKMVVTGAKSEDDSKLASRKYARIIQKIGFAAKFTDFKIQNIVGSCDVKFPIRLEGLAFSHGTFSSYEPELFPGLIYRMVKPKIVLLIFVSGKIVLTGAKQREEIYQAFEAIYPVLSEFRKM",,37.1 nM

# — article PMC10491584, “Structural convergence endows nuclear transport receptor Kap114p with a transcriptional repressor function toward TATA-binding protein” (Nature Communications, 2023)
